The values that follow come from publication PMC4264680.

Like-named read-outs stand apart in the source and are kept apart here.

Assay in all cases: EMSA
In general terms: Mobility shift assays separate free from complexed probe on a gel.

The target in data set [1] is hnRNP K (purified);CREB (purified) (;, UniProt P61978;P16220 1-463;1-327, |).
Data set [2] deals with T1, CREB (purified) (UniProt P16220 1-327).
In data set [3] the target is T1, CREB (purified). The source holds these as a separate data set.

T1 sequence (P16220 whole entry): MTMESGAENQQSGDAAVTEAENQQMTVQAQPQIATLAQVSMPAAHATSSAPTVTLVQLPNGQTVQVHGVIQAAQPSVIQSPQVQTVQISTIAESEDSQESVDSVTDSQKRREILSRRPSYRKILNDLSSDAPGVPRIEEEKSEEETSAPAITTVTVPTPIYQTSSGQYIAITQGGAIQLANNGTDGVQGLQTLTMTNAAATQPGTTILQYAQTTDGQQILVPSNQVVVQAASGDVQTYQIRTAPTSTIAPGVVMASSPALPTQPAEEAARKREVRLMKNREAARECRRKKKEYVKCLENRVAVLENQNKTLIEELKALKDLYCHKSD
hnRNP K (purified);CREB (purified), sequence (P16220 whole entry, chain 2 of 2, other chains not shown): as the sequence (P16220 whole entry) above

B1: Th GC-R1/CRE duplex WT (EMSA) (dsDNA)
DNA 1: GCAGGAGGTAGGAGGTGGGGGACCCAGAGGGGCTTTGACGTCAGCCTGGCC
DNA 2: GGCCAGGCTGACGTCAAAGCCCCTCTGGGTCCCCCACCTCCTACCTCCTGC
In the case of B1, the binding result (in data set [1]; in the data set with CREB (purified) [2]) was “binds” in each case.

B2: CRE mutant duplex (EMSA) (dsDNA)
DNA 1: GCAGGAGGTAGGAGGTGGGGGACCCAGAGGGGCTTGTCATCAGGCCTGGCC
DNA 2: GGCCAGGCCTGATGACAAGCCCCTCTGGGTCCCCCACCTCCTACCTCCTGC
B2: in the data set with CREB (purified) [3], the binding result was “binds”.
